Measured values: the DeepSol protein solubility set

Experiment: soluble on expression in E. coli; label from the status in PepcDB or PDB records

Sequence	soluble on expression in E. coli
MSLKKLISGIIAVAMALSLAACQKETKVISLSGKTMGTTYHVKYLDDGSITATSEKTHEEIEAILKDVNAKMSTYKKDSELSRFNQNTQVNTPIEISADFAKVLAEAIRLNKVTEGALDVTVGPVVNLWGFGPEKRPEKQPTPEQLAERQAWVGIDKITLDTNKEKATLSKALPQVYVDLSSIAKGFGVDQVAEKLEQLNAQNYMVEIGGEIRAKGKNIEGKPWQIAIEKPTTTGERAVEAVIGLNNMGMASSGDYRIYFEENGKRFAHEIDPKTGYPIQHHLASITVLAPTSMTADGLSTGLFVLGEDKALEVAEKNNLAVYLIIRTDNGFVTKSSSAFKKLTETKEEGGSHHHHHH	soluble
MSLKKLIVLTCTLSLLTACGDSIEKKAGEKLAAARAAFEHNDYNEAKLQIDSIKILYPKAFDTRKEGIKLMQQVELKEQQESLVYLDSMLQVKQEEFEAIKNKYTFEKNEEYQKIGNYFWPTQTVEKNLHRSFLRFQVNEQGVMTLTSIYCGPSNIHHVAVKVIAPDGSFAETPASNDSYETTDLGEKIEKADYKMGEDGNVLSFLYMNRDKKNIRVEYLGERKFSTTMTPSDREALVGTYELAKLLSSIRQIQQEKEEANLKIEFVKRKMEQKAQEEAAEKEGHHHHHH	soluble
MSLKKLRIGVVGLGGIAQKAWLPVLAAASDWTLQGAWSPTRAKALPICESWRIPYADSLSSLAASCDAVFVHSSTASHFDVVSTLLNAGVHVCVDKPLAENLRDAERLVELAARKKLTLMVGFNRRFAPLYGELKTQLATAASLRMDKHRSNSVGPHDLYFTLLDDYLHVVDTALWLSGGKASLDGGTLLTNDAGEMLFAEHHFSAGPLQITTCMHRRAGSQRETVQAVTDGALIDITDMREWREERGQGVVHKPIPGWQSTLEQRGFVGCARHFIECVQNQTVPQTAGEQAVLAQRIVDKIWRDAMSEEGGSHHHHHH	soluble
MSLKKRYDLSYNFNVHEVPRAALEERFDPKSPTKRSIAIVFEEIKNWISDIPYVISLSYTDAQDKSKKIMNVTTDSLTKVLQADLPGSYNLEYIESKFCPGEIVGKSNVLVTMPVAPTMEVKSFPILDQCVGQVGLNFELSFTGAPPYYYNTKIYKLENGERKLYDAKRYTSEGTRNRFSYSPPKEGNYEIVFDTVSNKLFTEPIKLEPVKEYTFKTSMRVKPSASLKLHHDLKLCLGDHSSVPVALKGQGPFTLTYDIIETFSSKRKTFEIKEIKTNEYVIKTPVFTTGGDYILSLVSIKDSTGCVVGLSQPDAKIQVRRDEGHHHHHH	soluble
MSLKLFITGIGSGLGKALVEEGIKRGYEVYALSRHLPEEFKEKIHFVKCDLLKVEEVQGCLFKLLSGVKELELAILNAGILGKFSDMKDISLHEIDEVMKVNLWSNKVIIDTLMELGIKVKTLIGISSGAARNCNRGWNAYSLSKAGLNCLLKLYSWELPETKVISLAPGLVLTPMLKEVMSQNEEKYPSIKRIKNAPKLTPEKTAEFIFSILPKLESVESGSFVDVREGHHHHHH	soluble
MSLKLLIFEYATASGIDDPEIFLEGRSMLEALLTDFRDFDVEFLLSERFADMDIGAGFRPSIIGDLDEWLQENLEGFDACIFIAAEEGMELYRLTRIVEESGVLLLGSSGDAVRTCSDKRLTYRALDGRVPLIGTYEPEEIVDVPSRLIVKPADGVACQGIRILEPGDEPDLSGDMIIQDFIEGESVSVSLLSNGEKALPLSLNRQDIIMAGSELEYNGGSAPVDHEMREDAFTVARRAVESITGLRGYVGVDLILADEPYVVEINSRITTPYIGLRRVTEANLGHLILESVLGRLPSGVKFNGTASFRKGIDGMVVEVTEGFRGYEGHHHHHH	soluble
MSLKLSDPGPIFYGHRRVGHNGRYFHCLKFRTMAMNGDEMLRQYLAANPEAAEEWRATRKLKNDPRVTAVGAVLRKLSLDELPQLLNIIRGEMSVVGPRPVVDEELSYYENAAAYYLSTRPGLTGLWQISGRNDVSYKTRVAFDTQYVQNWSMRQDVFIIVKTIPAVCMSRGSYEGHHHHHH	soluble
MSLKLTIGVSYPTANSPFWNAYTRFIDEGSHQLGVYINAVSAEEDEQKQLSDVETLINQGIDGLIVTPQSTSIAPTLLRIATQANIPVVVVDRYPGYAPGQNKNADYVAFLGPNNEKAGSGIAEALMAGGGSKFLALGGMPGNSVAQGRKAGLESALTAVGHRLVQFQYAGDSEDKGLAAAENMLQAHPAGDANAIWCFNDKLCQGAIKAVYNANREKEFIFGGMDLTPQAIAAIENGLYTVSLGAHWLEGGFGLAILYRKIHGQDPAERMVKLDLLKVDKSNVAKFKARYEGHHHHHH	not soluble
MSLKNPLKLCGIEFTEYATPDSDFMEKAFYGFGFSKTKKMKGRDVEYFNQNDIHFLLNKEKAGFSKEFAKSHGPAICSMGWRVEDANFAFNEAVKRGAKSAENEANKLPYPAIFGIGDSLIYFIENFAKTGTNKGLIYDTDFEDIAEPVIVEDKGFLAVDHLTNNVYQGTMHKWADFYKDVFGFTEVRYFDIKGVKTALISYALASPCGKFCIPINEGKGSKDNQIDEYLNEYNGPGVQHLAFITDDLVGSLDKLDRSIVDTLNIVPEYYDEIFDRVPWVKEDKARIKEHQILVDSQSEDSYLLQIFTKNLFGPIFIEMIQRVDDQGFGEGNFSTLFKSIELNQMERGEGHHHHHH	soluble
MSLKPKRILLVNEQRSFQVMMKAMLINIGISRITYANSAEEARRRCQKETFDIYLLDYELGVGENGRQLLESLRDQKLIPPQSVVIMVSGDSSRAMVLSALEAEPDEYLMKPFSQEQFSFRLKRALARRQALESVFSALAKEDLPTLLAACAERADAVPRFANFCRCLQADTQLKLGQAKEARSLMRQLLAGQENSWARLTLGKACHTLGLNEEAVSHLQATLKNTPLMVEAHLWLAESQLALGNDEQAQQELKRAVDISPQSVQLSRRLAEVCLLRHDYAQAKDVLLSLIDLSRNSIHRTPHYLGAYIQSLTLYALNSNEGHHHHHH	not soluble
MSLKPSDFVKYLQRMIALTDTGLTFTKDPFDRERYEDLRSLLSEMLNQVSDLDAEEVAEVLKPTSAYATPLMDVRAWIVEDEKICLVRRQGEDSWALPGGFGEVGYSPTENILKEIEEETGFKAKVERLLAVFDTNRFQLQSKQYAKFVFECKLLDGQFQENQEIAALQFFTIDQLPNLSEKRITKEQIEILWQVYQGQREQYLDEGGSHHHHHH	soluble
MSLKQAAENTLNLNPVIGIRGKDLLTSARMVLLQAVRQPLHSARHVAHFSLELKNVLLGQSELRPGDDDRRFSDPAWSQNPLYKRYMQTYLAWRKELHSWISHSDLSPQDISRGQFVINLLTEAMSPTNSLSNPAAVKRFFETGGKSLLDGLGHLAKDLVNNGGMPSQVDMDAFEVGKNLATTEGAVVFRNDVLELIQYRPITESVHERPLLVVPPQINKFYVFDLSPDKSLARFCLRNGVQTFIVSWRNPTKSQREWGLTTYIEALKEAIEVVLSITGSKDLNLLGACSGGITTATLVGHYVASGEKKVNAFTQLVSVLDFELNTQVALFADEKTLEAAKRRSYQSGVLEGKDMAKVFAWMRPNDLIWNYWVNNYLLGNQPPAFDILYWNNDTTRLPAALHGEFVELFKSNPLNRPGALEVSGTPIDLKQVTCDFYCVAGLNDHITPWESCYKSARLLGGKCEFILSNSGHIQSILNPPGNPKARFMTNPELPAEPKAWLEQAGKHADSWWLHWQQWLAERSGKTRKAPASLGNKTYPAGEAAPGTYVHEREGHHHHHH	not soluble
MSLKQQLIKNGLVLDMKGNHKPQAKDILIEGKWIRDIRPNIEPEVDTEIIDAEGKIVMPGFVDTHRHVWESLLRHIGTDWTLLTYLDNLYYGNLGSMLTPEDSYIANLWGALEAIDAGVTTVLDWSMLETPEHADASIKGLQAAGIRAVFAHGTPGYETYWSRDSEVRHPKDAKRVKKEYFQSDDQLLTMALAIRGPEFSSWEVTLDDIQLARELDAIASMHIGFGTWGPHDRSITRMREAGLLDSDLNLVHVNRIQPHEYEYIAESGASLSVTPEVEMMMGHGYPATGYLHKHRGLVTLGVDVVVATAGDMFAQMKFALQAERAWQNEQRLDRGEMPEQLKMTTNDVLTFATLNGAKALKLDDKIGTLDVGKEADLLLINPSSFNLFPLNHEPVGAVVQSARPENVDSVFIAGRPVKRHGKLLFDDLDGLRNKVLAASEAVFHRQAAKNEGHHHHHH	soluble
